Article PMC5177890, “Controlled Orientation of Active Sites in a Nanostructured Multienzyme Complex” (Scientific Reports, 2016)

Target: the molecule itself
Test: SEC; size exclusion chromatography of the enzyme in solution (Supplementary Fig. 1); conditions not told in the main text

B1: Formate dehydrogenase from Thiobacillus sp. KNK65MA, wild type (enzyme)
chain: MAKILCVLYDDPVDGYPKTYARDDLPKIDHYPGGQTLPTPKAIDFTPGQLLGSVSGELGLRKYLEANGHTFVVTSDKDGPDSVFEKELVDADVVISQPFWPAYLTPERIAKAKNLKLALTAGIGSDHVDLQSAIDRGITVAEVTYCNSISVAEHVVMMILGLVRNYIPSHDWARKGGWNIADCVEHSYDLEGMTVGSVAAGRIGLAVLRRLAPFDVKLHYTDRHRLPEAVEKELGLVWHDTREDMYPHCDVVTLNVPLHPETEHMINDETLKLFKRGAYIVNTARGKLADRDAIVRAIESGQLAGYAGDVWFPQPAPKDHPWRTMKWEGMTPHISGTSLSAQARYAAGTREILECFFEGRPIRDEYLIVQGGALAGTGAHSYSKGNATGGSEEAAKFKKAG
notes: NAD-dependent formate dehydrogenase of Thiobacillus sp; KNK65MA; fdh gene PCR amplified from pET-23b(+)-TsFDH and subcloned into pQE80; 45 kDa for a single subunit; also called FDH; FDH-WT; source: E. coli TOP10, purified (Ni-NTA agarose)
  stoichiometry N: 2
